Measured values: paper doi:10.1101/2025.05.15.654344 (bioRxiv, 2025)

B1: D-dopachrome tautomerase (D-DT or MIF-2), wild type (natural protein, human, UniProt P30046 1-118, looked up)
chain: MPFLELDTNLPANRVPAGLEKRLCAAAASILGKPADRVNVTVRPGLAMALSGSTEPCAQLSISSIGVVGTAEDNRSHSAHFFEFLTKELALGQDRILIRFFPLESWQIGKIGTVMTFL
B2: C56S MIF-2 bound to Ebselen (Cys23 covalently modified) (natural protein, human, UniProt P30046 1-118, looked up)
chain: MPFLELDTNLPANRVPAGLEKRLCAAAASILGKPADRVNVTVRPGLAMALSGSTEPSAQLSISSIGVVGTAEDNRSHSAHFFEFLTKELALGQDRILIRFFPLESWQIGKIGTVMTFL
modifications: Cys23 covalently modified by Ebselen
B3: WT MIF-2 bound to Ebselen (Cys23 covalently modified) (natural protein, human, UniProt P30046 1-118, looked up)
chain: MPFLELDTNLPANRVPAGLEKRLCAAAASILGKPADRVNVTVRPGLAMALSGSTEPCAQLSISSIGVVGTAEDNRSHSAHFFEFLTKELALGQDRILIRFFPLESWQIGKIGTVMTFL
modifications: Cys23 covalently modified by Ebselen
B4: MIF-2 C56S variant (natural protein, human, UniProt P30046 1-118, looked up)
chain: MPFLELDTNLPANRVPAGLEKRLCAAAASILGKPADRVNVTVRPGLAMALSGSTEPSAQLSISSIGVVGTAEDNRSHSAHFFEFLTKELALGQDRILIRFFPLESWQIGKIGTVMTFL

Target: the molecule itself
Test: NMR spin relaxation

Stoichiometry N, 3:
B1
B2
B3
B4
